Test results published in the supplement of paper PMC7877785.
± gives the uncertainty stated by the source.

Test: self-splicing fitness, log relative to wild type (ln ratio); higher = more splicing; Tetrahymena group I intron in knt gene, E. coli kanamycin selection, DiMSum; sequences stand for … in CUCUCU…GGAGGGAAAAGUUAUCAGGCAUGCACCUGGUAGCUAGUCUUUAAACCAAUAGAUUGCAUCGGUUUAAAAGGCAAGACCGUCAAAUUGCGGGAAAGGGGUCAACAGCCGUUCAGUACCAAGUCUCAGGGGAAACUUUGAGAUGGCCUUGCAAAGGGUAUGGUAAUAAGCUGACGGACAUGGUCCUAACCACGCAGCCAAGUCCUAAGUCAACAGAUCUUCUGUUGAUAUGGAUGCAGUUCACAGACUAAAUGUCGGUCGGGGAAGAUGUAUUCUUCUCAUAAGAUAUAGUCGGACCUCUCCUUAAUGGGAGCUAGCGGAUGAAGUGAUGCAACACUGGAGCCGCUGGGAACUAAUUUGUAUGCGAAAGUAUAUUGAUUAGUUUUGGAGUACUCGUGGUCG
Method in brief: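 Colonies from six replicate transformations of E. coli BL21(DE3) were pooled and amplicon-sequenced on an Illumina HiSeq 2500. The library placed an intron with all eight P1ex-region nucleotides randomised inside the knt kanamycin-resistance gene on pET-22b(+), and cells grew overnight at 37°C or 30°C on LB agar with or without 25 μg/mL kanamycin (plus 100 μg/mL carbenicillin, 50 μM IPTG, 0.2% rhamnose). Fitness is the DiMSum error-weighted combination of wild-type-normalised replicate fold changes, kanamycin versus none.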

Sequence	self-splicing fitness (ln) (30 °C)	self-splicing fitness (ln) (37 °C)
CCCCAGCAAUAUUACGCUAC	-2.29 ± 0.17	-2.05 ± 0.22
CCCCAGCAAUAUUACGGAUA	-3.92 ± 0.24	-2.65 ± 0.16
CCCCAGCAAUAUUACGGGGC	-2.95 ± 0.1	-3.43 ± 0.17
CCCCAGCAAUAUUACGGUAC	-3.84 ± 0.25	-2.66 ± 0.21
CCCCAGCAAUAUUACGGUCC	-3.86 ± 0.18	-2.9 ± 0.27
CCCCAGCAAUAUUACGUAAA	-3.91 ± 0.17	-2.89 ± 0.26
CCCCAGCAAUAUUACGUAAG	-3.18 ± 0.12	-1.33 ± 0.12
CCCCAGCAAUAUUACGUAAU	-3.53 ± 0.11	-1.67 ± 0.11
CCCCAGCAAUAUUACGUCGC	-3.65 ± 0.18	-2.34 ± 0.2
CCCCAGCAAUAUUACGUCUG	-3.45 ± 0.16	-2.04 ± 0.14
CCCCAGCAAUAUUACGUGGG	-3.83 ± 0.12	-2.81 ± 0.14
CCCCAGCAAUAUUACGUGUA	-3.17 ± 0.11	-2.75 ± 0.13
CCCCAGCAAUAUUACGUUAC	-4.86 ± 0.46	-2.37 ± 0.28
CCCCAGCAAUAUUACGUUGU	-3.93 ± 0.12	-2.77 ± 0.13
CCCGAGCAAUAUUACGACGA	-3.44 ± 0.43	-1.6 ± 0.2
CCCGAGCAAUAUUACGAGUA	-3.01 ± 0.16	-2.37 ± 0.14
CCCGAGCAAUAUUACGCAUA	-3.7 ± 0.43	-2.06 ± 0.21
CCCGAGCAAUAUUACGCCAA	-3.35 ± 0.31	-2.12 ± 0.26
CCCGAGCAAUAUUACGCCUC	–	-1.77 ± 0.34
CCCGAGCAAUAUUACGCGCA	-3.47 ± 0.34	-1.28 ± 0.3
CCCGAGCAAUAUUACGCGUU	-4.43 ± 0.3	-2.22 ± 0.28
CCCGAGCAAUAUUACGCUGU	-4.16 ± 0.31	-2.62 ± 0.27
CCCGAGCAAUAUUACGGUGA	-2.19 ± 0.1	-1.32 ± 0.097
CCCGAGCAAUAUUACGGUGC	-4.61 ± 0.32	-2.77 ± 0.16
CCCGAGCAAUAUUACGGUGU	-3.28 ± 0.1	-1.67 ± 0.094

Sequence	self-splicing fitness (ln) (30 °C)	self-splicing fitness (ln) (37 °C)
CCCGAGCAAUAUUACGGUUA	-2.05 ± 0.1	-1.36 ± 0.1
CCCGAGCAAUAUUACGUAGG	-2.04 ± 0.11	-1.16 ± 0.14
CCCGAGCAAUAUUACGUAUA	-2.79 ± 0.17	-2.82 ± 0.26
CCCGAGCAAUAUUACGUCCA	-3.48 ± 0.25	-2.26 ± 0.24
CCCGAGCAAUAUUACGUCCC	-2.8 ± 0.24	-2.3 ± 0.49
CCCGAGCAAUAUUACGUGAC	–	-2.41 ± 0.3
CCCGAGCAAUAUUACGUUAG	-3.6 ± 0.17	-2.8 ± 0.22
CCCGAGCAAUAUUACGUUUC	-3.44 ± 0.2	-3.54 ± 0.24
CCCUAGCAAUAUUACGAAGC	-2.97 ± 0.43	-2.92 ± 0.27
CCCUAGCAAUAUUACGACAA	-3.22 ± 0.35	-2.1 ± 0.28
CCCUAGCAAUAUUACGACGG	-2.7 ± 0.14	-2.87 ± 0.34
CCCUAGCAAUAUUACGACUA	-2.51 ± 0.29	-2.21 ± 0.21
CCCUAGCAAUAUUACGCCAU	-4.3 ± 0.42	-2.43 ± 0.39
CCCUAGCAAUAUUACGCGUA	-2.29 ± 0.31	-0.911 ± 0.2
CCCUAGCAAUAUUACGCGUC	-3.35 ± 0.14	-3.21 ± 0.23
CCCUAGCAAUAUUACGCUGG	-4.39 ± 0.27	-2.89 ± 0.27
CCCUAGCAAUAUUACGGAAU	-3.36 ± 0.37	-1.82 ± 0.31
CCCUAGCAAUAUUACGGCCU	-2.9 ± 0.21	–
CCCUAGCAAUAUUACGGCGG	-2.6 ± 0.14	-2.42 ± 0.18
CCCUAGCAAUAUUACGGCUG	-2.46 ± 0.28	-1.38 ± 0.3
CCCUAGCAAUAUUACGGUUC	-3.92 ± 0.16	-2.04 ± 0.21
CCCUAGCAAUAUUACGGUUG	-3.3 ± 0.14	-2.04 ± 0.11
CCCUAGCAAUAUUACGUAGU	-3.63 ± 0.18	-2.51 ± 0.17
CCCUAGCAAUAUUACGUGUG	-4.41 ± 0.24	-2.43 ± 0.13
CCCUAGCAAUAUUACGUUAA	-3.42 ± 0.18	-3.16 ± 0.29

Sequence	self-splicing fitness (ln) (30 °C)	self-splicing fitness (ln) (37 °C)
CCGAAGCAAUAUUACGAAAC	-3.12 ± 0.31	-2.46 ± 0.37
CCGAAGCAAUAUUACGACGU	-1.03 ± 0.08	0.0423 ± 0.092
CCGAAGCAAUAUUACGAGCU	-3.83 ± 0.27	-2.47 ± 0.19
CCGAAGCAAUAUUACGAGUC	-3.86 ± 0.21	-2.53 ± 0.19
CCGAAGCAAUAUUACGCAAG	-1.83 ± 0.17	-1.12 ± 0.17
CCGAAGCAAUAUUACGCAGG	-2.04 ± 0.12	–
CCGAAGCAAUAUUACGCCAU	-4.11 ± 0.27	-3.25 ± 0.21
CCGAAGCAAUAUUACGCGGG	-3.3 ± 0.19	-2.62 ± 0.24
CCGAAGCAAUAUUACGCUAG	-2.1 ± 0.18	-1.87 ± 0.22
CCGAAGCAAUAUUACGCUAU	–	-2.24 ± 0.25
CCGAAGCAAUAUUACGCUCU	-3.24 ± 0.4	–
CCGAAGCAAUAUUACGCUGU	-3.74 ± 0.32	-2.84 ± 0.4
CCGAAGCAAUAUUACGGAAU	-3.74 ± 0.19	-3 ± 0.24
CCGAAGCAAUAUUACGGAGG	-4.7 ± 0.31	-2.44 ± 0.21
CCGAAGCAAUAUUACGGCCA	-2.76 ± 0.17	-2.3 ± 0.18
CCGAAGCAAUAUUACGGCUA	-2.89 ± 0.29	-1.64 ± 0.24
CCGAAGCAAUAUUACGGCUG	-1.53 ± 0.092	-0.38 ± 0.11
CCGAAGCAAUAUUACGGGUG	-0.732 ± 0.047	-0.639 ± 0.061
CCGAAGCAAUAUUACGGUAA	-1.62 ± 0.13	-3.15 ± 0.23
CCGAAGCAAUAUUACGGUUA	–	-2.08 ± 0.24
CCGAAGCAAUAUUACGUACC	-3.47 ± 0.16	-2.5 ± 0.21
CCGAAGCAAUAUUACGUAGC	-3 ± 0.33	–
CCGAAGCAAUAUUACGUAUA	–	-2.51 ± 0.41
CCGAAGCAAUAUUACGUCUA	-3.69 ± 0.35	-2.25 ± 0.3
CCGAAGCAAUAUUACGUUGC	-3.51 ± 0.21	-2.66 ± 0.22

Sequence	self-splicing fitness (ln) (30 °C)	self-splicing fitness (ln) (37 °C)
CCGCAGCAAUAUUACGAAAA	-3.37 ± 0.21	-2.39 ± 0.16
CCGCAGCAAUAUUACGAACG	-0.44 ± 0.085	0.193 ± 0.1
CCGCAGCAAUAUUACGACCA	-3.34 ± 0.25	-1.95 ± 0.25
CCGCAGCAAUAUUACGAGCU	-2.93 ± 0.27	-3.37 ± 0.28
CCGCAGCAAUAUUACGAUAC	-2.77 ± 0.28	-2.19 ± 0.46
CCGCAGCAAUAUUACGAUCG	0.289 ± 0.083	0.186 ± 0.11
CCGCAGCAAUAUUACGCCUU	-3.2 ± 0.21	-2.08 ± 0.16
CCGCAGCAAUAUUACGCGAU	-3.44 ± 0.14	-3.44 ± 0.21
CCGCAGCAAUAUUACGCGCC	-2.71 ± 0.25	-2.02 ± 0.47
CCGCAGCAAUAUUACGCGGA	-3.03 ± 0.29	-3.11 ± 0.3
CCGCAGCAAUAUUACGCGUG	-2.75 ± 0.15	-2.38 ± 0.17
CCGCAGCAAUAUUACGCUCG	-1.9 ± 0.07	-1.41 ± 0.094
CCGCAGCAAUAUUACGGAAA	-3.75 ± 0.3	-3.29 ± 0.43
CCGCAGCAAUAUUACGGCAC	-2.89 ± 0.21	-2.91 ± 0.25
CCGCAGCAAUAUUACGGGAU	-4.16 ± 0.33	-1.82 ± 0.16
CCGCAGCAAUAUUACGGGGG	-3.71 ± 0.18	-3.2 ± 0.3
CCGCAGCAAUAUUACGGGUA	-4.25 ± 0.42	-2.44 ± 0.22
CCGCAGCAAUAUUACGGUAG	-2.16 ± 0.086	-1.11 ± 0.093
CCGCAGCAAUAUUACGGUUU	-3.45 ± 0.14	-2.86 ± 0.16
CCGCAGCAAUAUUACGUAGA	-3.07 ± 0.17	-1.37 ± 0.12
CCGCAGCAAUAUUACGUCCC	–	-2.65 ± 0.49
CCGCAGCAAUAUUACGUUCC	-3.27 ± 0.41	-1.54 ± 0.43
CCGCAGCAAUAUUACGUUGU	-3.23 ± 0.16	-3.8 ± 0.26
